The results in this text go back to patent US20160347841A1 (UNIVERSIDAD NACIONAL AUT NOMA DE M XICO, published 2016).

In the test the target is T1, DEC-205 receptor of dog spleen cells (dog, UniProt A0A8I3Q134 28-1723).
T1 construct: whole, on cells; It only reports that no 205 kDa band was isolated
As to the kind of experiment: immunoprecipitation from spleen white cell lysate, SDS-PAGE. The method, then:
For this purpose Jurkat cells (the cell line of human T lymphocytes) as well as white cells obtained from the spleens of different animals (pigs and dogs) were lysed in an immunoprecipitation buffer (PBS pH 7.4, 1% Triton X-100 with protease inhibitor). […] Then, 50 μL of A-Sepharose protein (Pierce, Rockford, Ill., USA) was used for immunoprecipitation, with incubation being done for one hour at ambient temperature. The immune complexes that were formed were washed extensively. The immunoprecipitates were eluted by boiling for five minutes in a sample buffer with SDS. These precipitates were analyzed on a 10% SDS-PAGE gel under reducing conditions using molecular weight markers. […] The molecular weights are indicated.

T1 sequence (A0A8I3Q134 entry or part of it): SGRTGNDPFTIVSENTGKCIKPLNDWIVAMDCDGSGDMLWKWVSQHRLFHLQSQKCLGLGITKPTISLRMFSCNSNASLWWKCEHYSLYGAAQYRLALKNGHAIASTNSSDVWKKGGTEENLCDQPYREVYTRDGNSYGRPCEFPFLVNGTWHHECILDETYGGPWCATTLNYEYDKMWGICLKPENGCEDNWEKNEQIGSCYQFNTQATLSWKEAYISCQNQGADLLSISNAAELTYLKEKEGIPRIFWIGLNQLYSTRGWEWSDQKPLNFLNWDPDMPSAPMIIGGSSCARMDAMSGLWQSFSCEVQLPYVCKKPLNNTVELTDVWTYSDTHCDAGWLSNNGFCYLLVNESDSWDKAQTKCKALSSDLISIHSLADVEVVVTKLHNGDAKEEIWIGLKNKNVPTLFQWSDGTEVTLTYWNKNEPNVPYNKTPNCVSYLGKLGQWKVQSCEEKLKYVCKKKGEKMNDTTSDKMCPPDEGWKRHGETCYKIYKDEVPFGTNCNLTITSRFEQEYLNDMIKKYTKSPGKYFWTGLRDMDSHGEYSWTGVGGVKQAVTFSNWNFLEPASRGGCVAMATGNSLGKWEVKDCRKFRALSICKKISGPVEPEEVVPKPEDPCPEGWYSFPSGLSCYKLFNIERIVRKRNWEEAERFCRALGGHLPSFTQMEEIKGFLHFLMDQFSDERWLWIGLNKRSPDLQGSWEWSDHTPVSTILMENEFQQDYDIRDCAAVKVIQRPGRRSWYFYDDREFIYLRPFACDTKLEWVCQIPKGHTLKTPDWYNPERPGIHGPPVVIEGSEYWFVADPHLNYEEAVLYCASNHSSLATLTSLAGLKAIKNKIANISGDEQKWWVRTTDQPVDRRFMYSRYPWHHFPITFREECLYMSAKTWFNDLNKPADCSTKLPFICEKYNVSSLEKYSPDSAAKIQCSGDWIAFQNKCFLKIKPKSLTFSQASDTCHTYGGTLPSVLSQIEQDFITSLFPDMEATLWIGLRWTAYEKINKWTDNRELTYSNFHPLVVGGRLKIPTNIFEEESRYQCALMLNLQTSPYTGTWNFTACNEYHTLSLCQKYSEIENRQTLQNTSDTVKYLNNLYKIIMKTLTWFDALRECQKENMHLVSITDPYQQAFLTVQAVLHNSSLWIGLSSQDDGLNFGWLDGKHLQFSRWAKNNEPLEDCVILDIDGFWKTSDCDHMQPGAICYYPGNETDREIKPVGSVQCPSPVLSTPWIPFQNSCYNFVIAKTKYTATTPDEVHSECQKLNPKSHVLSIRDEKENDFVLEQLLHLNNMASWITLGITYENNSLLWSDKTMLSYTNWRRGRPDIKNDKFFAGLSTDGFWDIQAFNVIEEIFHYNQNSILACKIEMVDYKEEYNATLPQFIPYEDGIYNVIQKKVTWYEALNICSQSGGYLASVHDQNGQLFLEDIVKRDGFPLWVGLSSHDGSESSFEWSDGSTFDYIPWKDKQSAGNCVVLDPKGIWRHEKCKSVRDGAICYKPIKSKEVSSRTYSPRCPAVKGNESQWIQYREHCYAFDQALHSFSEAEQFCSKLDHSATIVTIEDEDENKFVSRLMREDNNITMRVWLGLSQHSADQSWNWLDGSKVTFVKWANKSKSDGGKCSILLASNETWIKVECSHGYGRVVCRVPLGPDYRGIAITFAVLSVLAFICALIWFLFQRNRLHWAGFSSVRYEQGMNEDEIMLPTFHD

B1: murine monoclonal antibody 2F2E8E3B6 anti-CTLD-2 (antibody, IgG2a, V domains shown)
VH: EVQLQQSTAEFVKPGASVKLSCTASGFNIKDTYIHWVKQRPEQGLEWIGRIDPANGNTRYDPKFQGKATMTADTSSNTAYLQLSSLTSEDTAVYYCARYDVTYWGQGTLVTVS
VL: DIVMSQSPSSLAVSAGERVTMSCKSSQSLLNSRTRKNYLAWYQQKPGQSPKLLIYWASTRESGVPDRFTGSGSGTDFTLTISSVRAEDLAVYYCKQSYNLYTFGRGTKLEIK
notes: also called 2F2E8D3B6; AbM 2F2E8E3B6
Take B1: the binding result is recorded as “no binding”.
